Results on one molecule are retold here after patent EP4606382A1 (Fundació Centre de Regulació Genòmica, dated 2025).

In the test the target is T1, NanoLuc-cTAGE5-CC2 (predicted binding region of cTAGE5 coiled-coil 2 with a Nanoluciferase tag at the …).
T1 construct: The fusion construct was expressed inside live HEK293T cells; also called C5-CC2; c5-CC2
T1 chain: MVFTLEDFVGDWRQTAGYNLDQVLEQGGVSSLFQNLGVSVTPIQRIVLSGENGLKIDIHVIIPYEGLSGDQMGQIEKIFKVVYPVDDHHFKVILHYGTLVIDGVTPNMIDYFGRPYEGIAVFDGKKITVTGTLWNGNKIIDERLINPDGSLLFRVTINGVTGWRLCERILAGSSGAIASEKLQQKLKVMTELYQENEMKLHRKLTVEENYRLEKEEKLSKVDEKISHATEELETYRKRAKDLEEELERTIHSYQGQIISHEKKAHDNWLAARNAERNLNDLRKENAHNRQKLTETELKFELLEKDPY
Briefly: NanoBRET in live HEK293T cells (HaloTag 618 acceptor, NanoLuc donor). Background: In BRET a luciferase serves as donor, and the signal depends on an acceptor being close.

B1: Halo-T1-CC2 (portion of the coiled-coil region CC2 of TANGO1 with an N-terminal fusion of HaloTag) (other)
chain: MAEIGTGFPFDPHYVEVLGERMHYVDVGPRDGTPVLFLHGNPTSSYVWRNIIPHVAPTHRCIAPDLIGMGKSDKPDLGYFFDDHVRFMDAFIEALGLEEVVLVIHDWGSALGFHWAKRNPERVKGIAFMEFIRPIPTWDEWPEFARETFQAFRTTDVGRKLIIDQNVFIEGTLPMGVVRPLTEVEMDHYREPFLNPVDREPLWRFPNELPIAGEPANIVALVEEYMDWLHQSPVPKLLFWGTPGVLIPPAEAARLAKSLPNCKAVDIGPGLNLLQEDNPDLIGSEIARWLSTLEISGEPTTEDLYFQSDNAIASELRQKVEILNELYQQKEMALQKKLSQEEYERQEREHRLSAADEKAVSAAEEVKTYKRRIEEMEDELQKTERSFKNQIATHEKKAHENWLKARAAERAIAEEKREAANLRHKLLELTQKMAMLQEEP
modifications: HaloTag labeled with the HaloTag 618 fluorescent ligand
notes: The fusion construct was expressed inside live HEK293T cells; also called Halo-TANGO1-CC2; TANGO1-CC2
B1: the binding result is “binds”.
